Patent US20020193564A1, “Oligomeric chaperone proteins” (priority 1999, published 2002)
Where two headings read alike, the source gives them in different places.

Key:
[1] = tested on: mutant Huntingdon exon 1-expressing PC12 and SH-SY5Y cells; assay: Inclusion formation and cell death, mutant Huntingdon exon 1; assay type: cell-based; details: overexpression
Excerpt: These phenomena have been studied by transiently transfecting part of Huntingdon exon 1 in COS-7, PC12, and SH-SY5Y cells. Inclusion formation was not seen with constructs expressing 23 glutamines but was repeat length and time dependent for mutant constructs with 43-74 repeats. HSP70, HSP40, the 20S proteasome and ubiquitin colocalized with inclusions. […] Thus, inclusion formation may be enhanced in polyglutamine diseases, if the pathological process results in proteasome inhibition or a heat-shock response. […] To our knowledge, this is the first report of an HSP increasing aggregation of an abnormally folded protein in mammalian cells and expands the current understanding of the roles of HDJ-2yHSDJ in protein folding (See Wyttenbach, A. et al. (2000) Proc. Natl. Acad. Sci. USA 97, 2899-2903).
We have tested MC72 in the same system.

E. coli SV2 groEL44 = assay: In vivo complementation of ts groEL44 at 43° C.; assay type: cell-based; details: for Relative colony forming ability, SV2 groEL44: plasmids pJC, relative to growth at 30° C.
Method: (§1) In vivo Complementation Experiments.
(§2) Complementation experiments were performed by transforming electro-competent SV2 or SV6 cells with the pJC series of expression vectors and plating an aliquot of the transformation reactions directly at 43° C. The percentage of viable cells relative to the growth at 30° C. was determined. A representative number of clones which grew at 43° C. were incubated in absence of any selective markers at permissive temperature. After prolonged growth the loss of the pJC plasmids and the ts phenotype were verified. Each experiment was performed in duplicate. Plasmids carrying no groE genes or encoding the GroE proteins were used as negative or positive controls, respectively.

bacteriophage λ = assay: Growth of bacteriophage λ in transformed groEL strains; assay type: cell-based, bacteriophage λ (b2cI) in E. coli; parameters: key to Growth of bacteriophage λ, SV1 (groEL^+) / Growth of bacteriophage λ, SV2 groEL44: +++: normal plaque-forming ability relative to wild-type groEL^+ strain, in terms of both number and size; ++: 5-fold fewer plaques relative to wild-type groEL^+ strain, or both; 10-fold fewer plaques, or plaque size reduced relative to wild-type groEL^+ strain, or both; +/−: 10^2-fold fewer plaques and plaque size reduced relative to wild-type groEL^+ strain; no visible plaques (<10^−4); details: for Effect of over-expression on λ growth / plaque counts: SV1 (groE^+); for Growth of bacteriophage λ, SV1 (groEL^+) / Growth of bacteriophage λ, SV2 groEL44 / Growth of bacteriophage λ, SV3 GroEL59 / Growth of bacteriophage λ, SV6 groEL673: 30° C.
Excerpt: (§3) The E. Coli strains used in this study were: C41(DE3), a mutant of BL21(DE3) capable of expressing toxic genes (Miroux, B. & Walker, J. E. (1996) J. Mol. Biol. 260, 289-298); SV2 (B178groEL44), SV3 (B178groEL59) and SV6 (B178groEL673): isogenic strains carrying temperature-sensitive alleles of groEL; SV1(=B178) (Georgopoulos, C., Hendrix, R. W., Casjens, S. R. & Kaiser, A. D. (1973) J. Mol. Biol. 76, 45-60), A190 (ΔgroEL::kan^R) [pBAD-EL] (Ivic, A., Olden, D., Wallington, E. J. & Lund, P. A. (1997) Gene 194, 1-8), and TG1 (Gibson, T. J. (1984) Ph.D. thesis, University of Cambridge, U.K). Bacteriophage λb2cI (Zeilstra-Ryalls, J., Fayet, O., Baird, L. & Georgopoulos, C. (1993) J. Bacteriol. 175, 1134-1143) was used according to standard methods (Arber, W., Enquist, L., Hohn, B., Murray, N. E. & Murray, K. (1983) in Lambda II., ed. R. W. Hendrix, J. W. r., F. W. Stahl and R. A. Weisberg (Cold Spring Harbor Laboratory, Cold Spring Harbor, N.Y.), pp. 433-466); plaque formation was assayed at 30° C. T4D0, a derivative of bacteriophage T4 (Zeilstra-Ryalls, J., Fayet, O., Baird, L. & Georgopoulos, C. (1993) J. Bacteriol. 175, 1134-1143), was used according to standard methods (Karam, J. D. (1994) Molecular biology of bacteriophage T4. (American Society for Microbiology, Washington, D.C.)); plaque formation was assayed at 37° C.

E. coli SV6 groEL673 = assay: In vivo complementation of ts groEL673 at 43° C.; assay type: cell-based; details: for Relative colony forming ability, SV6 groEL673: plasmids pJC, relative to growth at 30° C.
Method: as §1, §2

[2] = tested on: mutant Huntingdon exon 1-expressing PC12 and SH-SY5Y cells; details: overexpression; cited from earlier work
bacteriophage T4 = assay: Growth of bacteriophage T4 in transformed groEL strains; assay type: cell-based, bacteriophage T4 (T4D0) in E. coli; parameters: key to Growth of bacteriophage T4, SV1 (groEL^+) / Growth of bacteriophage T4, SV2 groEL44 / Growth of bacteriophage T4, SV3 GroEL59 / Growth of bacteriophage T4, SV6 groEL673: +++: normal plaque-forming ability relative to wild-type groEL^+ strain, in terms of both number and size; ++: 5-fold fewer plaques relative to wild-type groEL^+ strain, or both; 10-fold fewer plaques, or plaque size reduced relative to wild-type groEL^+ strain, or both; +/−: 10^2-fold fewer plaques and plaque size reduced relative to wild-type groEL^+ strain; no visible plaques (<10^−4); details: for Growth of bacteriophage T4, SV1 (groEL^+) / Growth of bacteriophage T4, SV2 groEL44 / Growth of bacteriophage T4, SV3 GroEL59 / Growth of bacteriophage T4, SV6 groEL673: 37° C.
Excerpt: as §3

[3] = tested on: AI90 (ΔgroEL::kan^R) [pBADEL] E. coli strain; assay: Plating ability of AI90 on GroEL depletion at 37° C.; assay type: cell-based; parameters: key to Plating ability, 0.00 % L(+)arabinose: +++: growth identical to that in presence of 0.2% L(+)arabinose (100%), in terms of both number and size; ++: about 50% of the colonies relative to that in presence of 0.2% L(+)arabinose; +: about 30% of the colonies; +/−: ≦5% of the colonies and size reduced relative to that in presence of 0.2% L(+)arabinose; −: no visible colonies
Method: AI90 (ΔgroEL::kan^R) [pBAD-EL] cells were transformed with the pJC vector series. Transformants were selected at 37° C. on LB supplemented with 50 μg.ml^−1 of kanamycin, 120 μg.mL^−1 of ampicillin, 25 μg.mL^−1 of chloramphenicol and 0.2% L(+)arabinose. Depletion of GroEL protein was analysed at 37° C. by plating the same quantity of AI90 [PBAD-EL+pJC vectors] cells on LB plates containing 1% D(+)glucose or various amount of arabinose.
Each experiment was performed in triplicate. Plasmids carrying no groE genes or encoding the GroE proteins were used as negative or positive controls, respectively.

yeast Hsp104: yeast chaperone Hsp104
cell death [1]: reduced
inclusion formation [1]: reduced inclusion formation

GroES-EL: plasmid encoding the GroE proteins GroES and GroEL, positive control
Relative colony forming ability, SV2 groEL44 (E. coli SV2 groEL44): 1
Effect of over-expression on λ growth / plaque counts (bacteriophage λ): four-fold drop in plaques
Relative colony forming ability, SV6 groEL673 (E. coli SV6 groEL673): 1

B1: sht-GroEL(191-345): short histidine tail minichaperone, GroEL residues 191-345 (protein, UniProt P0A6F5 191-345, looked up, fragment)
chain: EGMQFDRGYLSPYFINKPETGAVELESPFILLADKKISNIREMLPVLEAVAKAGKPLLIIAEDVEGEALATLVVNTMRGIVKVAAVKAPGFGDRRKAMLQDIATLTGGTVISEEIGMELEKATLEDLGQAKRVVINKDTTTIIDGVGEEAAIQGR
modifications: short His tag
Relative colony forming ability, SV2 groEL44 (E. coli SV2 groEL44): 0.01-0.02
Complementation of the groEL673 defect in SV6 (E. coli SV6 groEL673): complemented
Relative colony forming ability, SV6 groEL673 (E. coli SV6 groEL673): 0.07-0.09

B2: GroEL(191-345): GroEL(191-345) minichaperone monomer (protein, UniProt P0A6F5 191-345, looked up, fragment)
chain: B1 chain
modifications: apical domain
notes: GroEL(191-345) minichaperone monomer
cell death [2]: reduced cell death
proportion of cells with inclusions / inclusion formation [2]: reduced slightly but significantly

B3: GroES(1-97): co-chaperone of GroEL, seven membered ring of 10 kD subunits (protein, UniProt P0A6F9 1-97, looked up)
Co-chaperonin GroES: MNIRPLHDRVIVKRKEVETKSAGGIVLTGSAAAKSTRGEVLAVGNGRILENGEVKPLDVKVGDIVIFNDGYGVKSEKIDNEEVLIMSESDILAIVEA
Relative colony forming ability, SV2 groEL44 (E. coli SV2 groEL44): 5 × 10^−3
Complementation of groEL mutant strains for bacteriophage λ growth (bacteriophage λ): allele-specific complementation
Growth of bacteriophage λ, SV1 (groEL^+) (bacteriophage λ): +++
Growth of bacteriophage λ, SV2 groEL44 (bacteriophage λ): +++
Growth of bacteriophage λ, SV3 GroEL59 (bacteriophage λ): − (no visible plaques (<10^−4))
Growth of bacteriophage λ, SV6 groEL673 (bacteriophage λ): − (no visible plaques (<10^−4))
Effect of over-expression on λ growth / plaque counts (bacteriophage λ): no effect
Relative colony forming ability, SV6 groEL673 (E. coli SV6 groEL673): <10^−4
Growth of bacteriophage T4, SV1 (groEL^+) (bacteriophage T4): +++
Growth of bacteriophage T4, SV2 groEL44 (bacteriophage T4): +++
Growth of bacteriophage T4, SV3 GroEL59 (bacteriophage T4): +++
Growth of bacteriophage T4, SV6 groEL673 (bacteriophage T4): − (no visible plaques (<10^−4))
Effect of over-expression on bacteriophage T4 growth in groEL strains (bacteriophage T4; groEL strains): allele-specific complementation

B4: sht-GroEL(193-335): short histidine tail minichaperone, GroEL residues 193-335 (protein, UniProt P0A6F5 193-335, looked up, fragment)
chain: MQFDRGYLSPYFINKPETGAVELESPFILLADKKISNIREMLPVLEAVAKAGKPLLIIAEDVEGEALATLVVNTMRGIVKVAAVKAPGFGDRRKAMLQDIATLTGGTVISEEIGMELEKATLEDLGQAKRVVINKDTTTIIDG
modifications: short His tag
Complementation of the groEL44 defect in SV2 (E. coli SV2 groEL44): complements the defect in SV2
Relative colony forming ability, SV2 groEL44 (E. coli SV2 groEL44): 0.05-0.09
Complementation of the groEL673 defect in SV6 (E. coli SV6 groEL673): less well
Relative colony forming ability, SV6 groEL673 (E. coli SV6 groEL673): 0.03-0.05

B5: sht-GroEL(191-376): histidine-tagged (short histidine tail; sht) minichaperone GroEL(191-376) (protein, UniProt P0A6F5 191-376, looked up, fragment)
chain: EGMQFDRGYLSPYFINKPETGAVELESPFILLADKKISNIREMLPVLEAVAKAGKPLLIIAEDVEGEALATLVVNTMRGIVKVAAVKAPGFGDRRKAMLQDIATLTGGTVISEEIGMELEKATLEDLGQAKRVVINKDTTTIIDGVGEEAAIQGRVAQIRQQIEEATSDYDREKLQERVAKLAGGV
modifications: short His tag
Relative colony forming ability, SV2 groEL44 (E. coli SV2 groEL44): <10^−4
Growth of bacteriophage λ, SV1 (groEL^+) (bacteriophage λ): +++
Growth of bacteriophage λ, SV2 groEL44 (bacteriophage λ): − (no visible plaques (<10^−4))
Growth of bacteriophage λ, SV3 GroEL59 (bacteriophage λ): − (no visible plaques (<10^−4))
Growth of bacteriophage λ, SV6 groEL673 (bacteriophage λ): − (no visible plaques (<10^−4))
Plating ability, 0.00 % L(+)arabinose ([3]; 0.00% arabinose): −
Plating ability, 0.01 % L(+)arabinose ([3]; 0.01% arabinose): +/− (≦5% of the colonies and size reduced relative to that in presence of 0.2% L(+)arabinose)
Plating ability, 0.10 % L(+)arabinose ([3]; 0.10% arabinose): + (about 30% of the colonies)
Plating ability, 0.15 % L(+)arabinose ([3]; 0.15% arabinose): ++ (about 50% of the colonies relative to that in presence of 0.2% L(+)arabinose)
Relative colony forming ability, SV6 groEL673 (E. coli SV6 groEL673): <10^−4
Growth of bacteriophage T4, SV1 (groEL^+) (bacteriophage T4): +++
Growth of bacteriophage T4, SV2 groEL44 (bacteriophage T4): − (no visible plaques (<10^−4))
Growth of bacteriophage T4, SV3 GroEL59 (bacteriophage T4): +++
Growth of bacteriophage T4, SV6 groEL673 (bacteriophage T4): − (no visible plaques (<10^−4))
